Data as given in article PMC9418327, “Specificity of the Hox member Deformed is determined by transcription factor levels and binding site affinities”.
Residue numbers refer to the chain shown, from its start.

Legend:
[1] = target: T1, Dfd (Deformed);Exd (Extradenticle);Hth (Homothorax) (Drosophila melanogaster?;Drosophila …, UniProt P07548;P40427;O46339 1-586;1-376;1-487, ||); assay: EMSA; binding abolished when all sites mutated; 20 mM HEPES pH 7.9, 1.4 mM MgCl2, 1 mM ZnSO4, 40 mM KCl, 0.1 mM EGTA, 5% glycerol, 10 mM DTT, 0.1% NP40, 200 ng poly(dI-dC), 3 ug BSA, 2 pmol Cy5 dsDNA in 30 ul, on ice 20 min; 1% agarose-TBE gel at 4 C; details: protein: recombinant;recombinant;recombinant; tags: GST (pGEX-6P);His-myc;His-Flag; copies: 1;1;1; label: 5'-Cy5; blunt
T1 sequence (P07548 whole entry, chain 1 of 3): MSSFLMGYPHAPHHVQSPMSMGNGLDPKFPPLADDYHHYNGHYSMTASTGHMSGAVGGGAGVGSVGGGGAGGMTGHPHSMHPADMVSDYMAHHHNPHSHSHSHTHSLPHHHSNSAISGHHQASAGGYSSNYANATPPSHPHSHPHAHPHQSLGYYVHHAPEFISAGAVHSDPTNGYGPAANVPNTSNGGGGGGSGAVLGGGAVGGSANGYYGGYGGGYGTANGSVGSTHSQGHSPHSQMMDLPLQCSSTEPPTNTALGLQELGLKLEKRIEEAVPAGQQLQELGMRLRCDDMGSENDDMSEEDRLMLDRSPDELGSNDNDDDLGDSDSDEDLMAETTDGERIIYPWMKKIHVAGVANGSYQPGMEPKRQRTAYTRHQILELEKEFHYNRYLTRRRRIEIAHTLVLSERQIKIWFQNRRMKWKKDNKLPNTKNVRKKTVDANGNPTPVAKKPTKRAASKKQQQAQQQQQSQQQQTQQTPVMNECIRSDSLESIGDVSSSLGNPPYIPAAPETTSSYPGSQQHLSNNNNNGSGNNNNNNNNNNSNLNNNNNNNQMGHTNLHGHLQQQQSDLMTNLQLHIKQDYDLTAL
T1 sequence (P40427 whole entry, chain 2 of 3): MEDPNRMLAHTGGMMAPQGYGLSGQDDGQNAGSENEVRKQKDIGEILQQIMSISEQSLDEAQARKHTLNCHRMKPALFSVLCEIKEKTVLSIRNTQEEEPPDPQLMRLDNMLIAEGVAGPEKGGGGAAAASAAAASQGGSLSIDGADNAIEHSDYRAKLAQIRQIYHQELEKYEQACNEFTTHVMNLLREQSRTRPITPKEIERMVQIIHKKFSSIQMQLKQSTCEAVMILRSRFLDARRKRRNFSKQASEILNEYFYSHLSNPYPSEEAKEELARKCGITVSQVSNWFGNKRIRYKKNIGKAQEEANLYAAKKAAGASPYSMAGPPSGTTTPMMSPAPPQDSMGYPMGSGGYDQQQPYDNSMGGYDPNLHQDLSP
T1 sequence (O46339 whole entry, chain 3 of 3): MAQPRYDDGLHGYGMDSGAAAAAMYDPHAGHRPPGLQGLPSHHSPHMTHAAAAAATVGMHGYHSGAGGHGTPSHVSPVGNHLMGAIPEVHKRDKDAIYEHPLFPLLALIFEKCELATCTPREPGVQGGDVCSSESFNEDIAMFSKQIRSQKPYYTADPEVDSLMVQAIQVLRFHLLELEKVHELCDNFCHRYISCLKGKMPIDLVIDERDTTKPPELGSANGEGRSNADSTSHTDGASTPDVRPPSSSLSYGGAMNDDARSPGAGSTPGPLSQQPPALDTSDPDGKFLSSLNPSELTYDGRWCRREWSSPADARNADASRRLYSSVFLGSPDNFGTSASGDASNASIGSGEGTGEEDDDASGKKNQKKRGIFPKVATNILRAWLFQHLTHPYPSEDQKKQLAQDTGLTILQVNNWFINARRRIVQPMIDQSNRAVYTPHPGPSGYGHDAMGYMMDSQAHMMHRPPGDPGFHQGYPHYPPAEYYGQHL

[2] = target: T1, Dfd (Deformed);Exd (Extradenticle);Hth …; assay: EMSA; 20 mM HEPES pH 7.9, 1.4 mM MgCl2, 1 mM ZnSO4, 40 mM KCl, 0.1 mM EGTA, 5% glycerol, 10 mM DTT, 0.1% NP40, 200 ng poly(dI-dC), 3 ug BSA, 2 pmol Cy5 dsDNA in 30 ul, on ice 20 min; 1% agarose-TBE gel at 4 C; details: protein: recombinant;recombinant;recombinant; tags: GST (pGEX-6P);His-myc;His-Flag; copies: 1;1;1; label: 5'-Cy5; blunt
[3] = target: T2, Dfd (Deformed);Exd (Extradenticle) (Drosophila melanogaster?;Drosophila …, UniProt P07548;P40427 1-586;1-376, |); assay: EMSA; Hth presence not given; 20 mM HEPES pH 7.9, 1.4 mM MgCl2, 1 mM ZnSO4, 40 mM KCl, 0.1 mM EGTA, 5% glycerol, 10 mM DTT, 0.1% NP40, 200 ng poly(dI-dC), 3 ug BSA, 2 pmol Cy5 dsDNA in 30 ul, on ice 20 min; 1% agarose-TBE gel at 4 C; details: protein: recombinant;recombinant; tags: GST (pGEX-6P);His-myc; copies: 1;1; label: 5'-Cy5; blunt
T2 sequence (P07548 whole entry, chain 1 of 2): as the sequence (P07548 whole entry, chain 1 of 3) above
T2 sequence (P40427 whole entry, chain 2 of 2): as the sequence (P40427 whole entry, chain 2 of 3) above

[4] = target: T2, Dfd (Deformed);Exd (Extradenticle); assay: EMSA; Hth presence not stated; review file prints 6.85 and 6.65; 20 mM HEPES pH 7.9, 1.4 mM MgCl2, 1 mM ZnSO4, 40 mM KCl, 0.1 mM EGTA, 5% glycerol, 10 mM DTT, 0.1% NP40, 200 ng poly(dI-dC), 3 ug BSA, 2 pmol Cy5 dsDNA in 30 ul, on ice 20 min; 1% agarose-TBE gel at 4 C; details: protein: recombinant;recombinant; tags: GST (pGEX-6P);His-myc; copies: 1;1; label: 5'-Cy5; blunt

B1: oligo-B-12-mt (dsDNA)
DNA 1: GACCGCAGAACCAAGCCGCCTATTGCCAGTGAAT
DNA 2: ATTCACTGGCAATAGGCGGCTTGGTTCTGCGGTC
[1]
  binding result: no binding

B2: oligo-A-wt (site 1) (dsDNA)
DNA 1: TCTCAGCCTCGATAATTAACACACAAGCGCGGGG
DNA 2: CCCCGCGCTTGTGTGTTAATTATCGAGGCTGAGA
[2]
  binding result: binds

B3: oligo-D-1-mt-2-H (D-9mut-10H) (dsDNA)
DNA 1: TATAAAAGGCGGCATTGATTAATTAATTCTCGAT
DNA 2: ATCGAGAATTAATTAATCAATGCCGCCTTTTATA
[3]
  Kd: 8.16 nM

B4: oligo-E-11-H (dsDNA)
DNA 1: CTTCTTCGGATGATTAATGACGCGCGTTCAACAT
DNA 2: ATGTTGAACGCGCGTCATTAATCATCCGAAGAAG
[4]
  Kd: 6.7 nM

B5: oligo-E-wt (site 11) (dsDNA)
DNA 1: CTTCTTCGGGCACCTAATGACGCGCGTTCAACAT
DNA 2: ATGTTGAACGCGCGTCATTAGGTGCCCGAAGAAG
[2]
  binding result: binds
[3]
  Kd: 16.8 nM

B6: oligo-D-1-mt (D-9mut-10wt) (dsDNA)
DNA 1: TATAAAAGGCGGCAAATACTAATCTATTCTCGAT
DNA 2: ATCGAGAATAGATTAGTATTTGCCGCCTTTTATA
[3]
  Kd: 16.9 nM

B7: oligo-D-wt (sites 9, 10) (dsDNA)
DNA 1: B6 DNA 1 with G9C, G11A, G12T, C13T
DNA 2: B6 DNA 2 with G22A, C23A, C24T, C26G
[2]
  binding result: binds

B8: oligo-class-2-site (dsDNA)
DNA 1: TTCAGAGCGAATGATTAATGATCGGTCAAG
DNA 2: CTTGACCGATCATTAATCATTCGCTCTGAA
[3]
  Kd: 9.12 nM
